Source: paper PMC10471729, “Luvadaxistat: A Novel Potent and Selective D-Amino Acid Oxidase Inhibitor Improves Cognitive and Social Deficits in Rodent Models for Schizophrenia” (Neurochemical Research, 2023)

System: T1, N[C@H](CO)C(=O)O
T1 construct: human recombinant DAAO enzyme
Assay: Amplex Red H2O2 detection; Michaelis constant (in-house data)
Type: biochemical, Homo sapiens
Conditions: FAD

Sequence of D-amino acid oxidase (DAAO) (Homo sapiens) (chain, as listed by the source): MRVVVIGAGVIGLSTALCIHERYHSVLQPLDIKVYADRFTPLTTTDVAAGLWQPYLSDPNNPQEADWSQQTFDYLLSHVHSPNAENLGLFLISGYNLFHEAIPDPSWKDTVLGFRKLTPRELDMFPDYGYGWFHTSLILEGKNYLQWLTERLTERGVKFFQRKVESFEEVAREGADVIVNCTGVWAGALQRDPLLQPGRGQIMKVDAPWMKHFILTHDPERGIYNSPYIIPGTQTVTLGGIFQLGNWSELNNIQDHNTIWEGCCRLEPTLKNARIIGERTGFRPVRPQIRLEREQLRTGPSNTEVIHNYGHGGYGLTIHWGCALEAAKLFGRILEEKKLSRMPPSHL

D-amino acid oxidase (DAAO) (Homo sapiens)
Km: 1200 µM
